One substance from paper PMC8565845 can be followed below.

Test [1] addresses HBV core protein mutant Cp-Y132A (assembly-incompetent) homodimer (hepatitis B virus (HBV)) (UniProt P03147). In words: HAP-Alexa488 staining with photobleaching step counting.
Test [2] shares this target. In words: optical tweezers force spectroscopy.

“HBV core protein mutant Cp-Y132A (assembly-incompetent) homodimer (from UniProt P03147 1-149) (natural protein)” displayed a stoichiometry N in test [1] of 2 Cp dimers. The same substance gave a ω (unitless association constant for two nucleic acid-bound ligands) in test [2] of 500.

The term stoichiometry N denotes a count of units in the complex or per binding partner.
